The values below come from US20240376199A1 (University of Texas, published 2024).

The chains are these.
B1: TREM2-Ab16Rb (antibody, V domains shown)
VH: QEQLVESGGGLVKPGASLTLTCTASGFSFSDTAYICWVRQAPGKGLEWVACIAFGDGRTYLASWAKGRFTISKTSSTTVTLQMTSLPAADTATYFCASNFTLWGPGTLVTVSS
VL: DVVMTQTPASVSEPVGGTVTINCQAIQSIGNNFVWYQQKPGQPPKLLIYKASIRASGVSSRFRGSGSGTDFTLTISDLECDDTGTYYCQCTYASSATFGGGTEVVVK
notes: Rabbit-derived mAb; also called 16 H / 16 k
B2: TREM2-Ab12Rb (antibody, V domains shown)
VH: QSVEESGGDLVKSGASLTLTCTASGFSFSSYYFMCWVRQAPGRGLEWIACIYAGTSANTYYASWAKGRFTISKTSSTTVTLQMTSLTAADTATYFCARDRGYYTYADAGYAYATDGFDLWGPGTLVTVSS
VL: ALVMTQTPASVEAAVGGTVTIKCQASQNIYSNLAWYQQKPGQPPKRLIYKASTLPSGVPSRFKGSGSGTQFTLTISDLECADAATYYCQSNYYSSSSNYGPNAFGGGTEVVVK
notes: Rabbit-derived mAb; also called 12 H / 12 k
B3: TREM2-Ab26Rb (antibody, V domains shown)
VH: QKQLVESGGDLVKPEGSLTLTCTASGFSFSYSYYMCWVRQAPGKGLEWIGCIYGGGSGSSYYASWAKGRFTISKTSSTTVTLQVTSLTAADTATYFCARIDDAYATVMWGPGTLVTVSS
VL: DVVMTQTASPVSGAVGGTVTIKCQASEDIYSSLAWYQQKPGQPPKLLIYQASKLASGVPPRFSGSGSGTEYTLTISDLECADAATYYCQNYYYVRGADYWAFGGGTEVVVE
notes: Rabbit-derived mAb; also called 26 H / 26 k
B4: TREM2-Ab2Hu (antibody, V domains shown)
VH: QVQLVQSGAEVKKPGASVKVSCKASGYTFTSYYMHWVRQAPGQGLEWMGIINPSGGSTSYAQKFQGRVTMTRDTSTSTVYMELSSLRSEDTAVYYCARDRPGRSSIAAAGPKRGHYGMDVWGQGTTVSVSS
VL: QSALNQPASVSGSPGQSITISCTGTSSDVGGYNYVSWYQQHPGKAPKLMIYEVSNRPSGVSNRFSGSKSGNTASLTISGLQAEDEADYYCSSYTSSRTLVFGTGTKVTVL
notes: also called H2-Hu / 2L-Hu
B5: TREM2-Ab19Hu (antibody, V domains shown)
VH: EVQLVQSGAEVKKPGASVKVSCKASGYTFTSYYMHWVRQAPGQGLEWMGIINPSGGSTSYAQKFQGRVTMTRDTSTSTVYMELSSLRSEDTAVYYCARSLSSGSYYDYWGQGTLVSVSS
VL: QSALTQPASVSGSPGQSITISCTGTSSDVGGYNYVSWYQQHPGKAPKLMIYDVTKRPSGVSNRFSGSKSGNTASLTVSGLQAEDEADYYCSSYTSSRTLVFGGGTKVTVL
notes: also called H19-Hu / 19L-Hu
B6: TREM2-Ab1Rb (antibody, V domains shown)
VH: QEQLVESGGGLVTPGGTLTLTCTASGIDFSNYGISWVRQAPGKGLEWIGYIYPDYGATAYANWVNGRFTVSLDNAQNTVTLNMTSLTAADTATYFCARSTGWGDFNLWGPGTLVTVSS
VL: DVVMTQTPASVSEPVGGTVTIKCQASQNIGSNLAWYQQKPGQPPNLLIYGASNLASGVSSRFKGSSSGTEYTLTISDLECADAATYYCQCTYYGSSYVAFGGGTEVVVK
notes: Rabbit-derived mAb; also called 1 H / 1 k
B7: TREM2-Ab2Rb (antibody, V domains shown)
VH: QKQLVESGGGLVKPEGSLTLTCKVSGIDFSSAGISWVRQAPGKGLEWIAYIYPDYGVTDYANWVNGRFTISLDNAQNTVFLQMTSLTAADTATYFCARMDAADAGYGYDLWGPGTLVTVSS
VL: AAVLTQTTSPVSGAVGGTVTIKCQASQSVGSNLAWYQQKPGQPPKILIGGASKLASGVPSRFSGSGSGTEFTLTISDLECADAGTYYCHSYYYSSTSADAFGGGTKVVVE
notes: Rabbit-derived mAb; also called 2 H / 2 k
B8: TREM2-Ab6Rb (antibody, V domains shown)
VH: QKQLVESGGGLVKPEGSLTLTCKVSGIDFSSAGISWVRQAPGKGLEWIAYIYPDYGVTDYANWVNGRFTISLDNAQNTVFLQMTSLTAADTATYFCARMDAADAGYGYDLWGPGTLVTVSS
VL: DVVMTQTTSPVSGAVGGTVTIKCQASQSVGTNLAWYQQKPGQPPKILIGGASKLASGVPSRFSGSGSGTEFTFTISDLECADAGTYYCHSYYYSSTSADAFGGGTEVVVK
notes: also called 2 H / 6 k
B9: TREM2-Ab22Rb (antibody, V domains shown)
VH: QSVEESGGDLVKPGASLTLTCTASGFSFSSTAMCWVRQAPGKGLEWIACIGFSSGIINYANSVKGRFTISKTSSTTVSLQMNSLTAADTATYFCARFFNLWGPGTLVTVSS
VL: DPVLTQTPSSVSAAVGGTVTISCQATETVYSNDRLAWYQQKPGQPPKLLIYRISTLESGVPSRFKGSGSGTQFTLTISGVQCDDAATYYCAGGYNGNIWAFGGGTEVVVK
notes: Rabbit-derived mAb; also called 22 H / 22 k
B10: TREM2-Ab8Hu (antibody, V domains shown)
VH: QVQLVESGGGLIQPGGSLRLSCAVSGVSVSNNYMNWVRQAPGKGLEWVSSMYSDATTHYADSVKGRFTISRDNSKNNMYLQMDSLRAEDTAVYYCARESVAGTLDFWGQGTTVSVSS
VL: SYELTQPPSASGTPGQRVTISCSGSSSNIGTYPVNWYQKLPGTAPKLLIYTNNQRPSGVPDRFSGSKSGTSASLTISGLQSEDEADYYCATWGDSLNAVVFGGGTKVTVL
notes: also called H8-Hu / 8L-Hu
B11: biotinylated TREM2 protein (Sino Biological) (receptor)
chain: LNTTVLQGMAGQSLRVSCTYDALKHWGRRKAWCRQLGEEGPCQRVVSTHGVWLLAFLKKRNGSTVIADDTLAGTVTITLKNLQAGDAGLYQCQSLRGREAEVLQKVLVEVLEDPLDDQDAGDLWVPEESSSFEGAQVEHSTSRNQETSFPPTS
modifications: Biotinylated; sites not stated.
notes: not shown: biotin label
B12: Ab18 IgG (antibody, V domains shown)
VH: QVQLQESGPGLVKPSETLSLTCTVSGGSISSYYWSWIRQPPGKGLEWIGSIYYSGSTNYNPSLKSRVTISVDTSKNQFSLKLSSVTAADTAVYYCARDGGGEYPSGTPFDIWGQGTMVTVSS
VL: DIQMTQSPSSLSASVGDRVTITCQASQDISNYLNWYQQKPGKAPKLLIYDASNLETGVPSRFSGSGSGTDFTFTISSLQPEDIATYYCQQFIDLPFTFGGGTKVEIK

The target in one assay is TREM2 (antigen of the BLI kinetics and binning of Tables 2 and 3). In words: BLI, Octet Red96.
With B1, binding was put at a Kd of 0.32 nM, the off-rate constant (koff) was determined as 7.84e-05 s⁻¹ and the association rate constant (kon) was found to be 245000 M⁻¹ s⁻¹.
In turn, B2 yielded a Kd of 71.8 nM, an off-rate constant (koff) of 0.00685 s⁻¹ and a kon of 95500 M⁻¹ s⁻¹.
For B3, in that order: 27.5 nM, 0.00487 s⁻¹ and 177000 M⁻¹ s⁻¹.
On to B4, for which binding was characterised by a dissociation constant (Kd) of 18.1 nM, the koff came to 0.00647 s⁻¹ and the kon was 359000 M⁻¹ s⁻¹.
B5 showed a Kd of 18.9 nM, a koff of 0.00986 s⁻¹ and a kon of 522000 M⁻¹ s⁻¹.
Taken in the same sequence, the figures for B6 were 1.42 nM, 0.000727 s⁻¹ and 513000 M⁻¹ s⁻¹.
For B7, in that order: 1.2 nM, 0.000451 s⁻¹ and 376000 M⁻¹ s⁻¹.
In the case of B8, binding was characterised by a dissociation constant (Kd) of 1.97 nM, the koff was found to be 0.000909 s⁻¹ and the on-rate constant (kon) came out at 461000 M⁻¹ s⁻¹.
For B9, in that order: 3.1 nM, 0.00107 s⁻¹ and 346000 M⁻¹ s⁻¹.
Taken in the same sequence, the figures for B10 were 8.18 nM, 0.00499 s⁻¹ and 609000 M⁻¹ s⁻¹.

The target in a further assay is T1, muTfR-His (Sino Biological) (mouse, UniProt Q62351 89-763).
T1 construct: extracellular domain; Bought protein; also called TfR ECD; mouse transferrin receptor; not shown: His tag
T1 sequence (Q62351 89-763): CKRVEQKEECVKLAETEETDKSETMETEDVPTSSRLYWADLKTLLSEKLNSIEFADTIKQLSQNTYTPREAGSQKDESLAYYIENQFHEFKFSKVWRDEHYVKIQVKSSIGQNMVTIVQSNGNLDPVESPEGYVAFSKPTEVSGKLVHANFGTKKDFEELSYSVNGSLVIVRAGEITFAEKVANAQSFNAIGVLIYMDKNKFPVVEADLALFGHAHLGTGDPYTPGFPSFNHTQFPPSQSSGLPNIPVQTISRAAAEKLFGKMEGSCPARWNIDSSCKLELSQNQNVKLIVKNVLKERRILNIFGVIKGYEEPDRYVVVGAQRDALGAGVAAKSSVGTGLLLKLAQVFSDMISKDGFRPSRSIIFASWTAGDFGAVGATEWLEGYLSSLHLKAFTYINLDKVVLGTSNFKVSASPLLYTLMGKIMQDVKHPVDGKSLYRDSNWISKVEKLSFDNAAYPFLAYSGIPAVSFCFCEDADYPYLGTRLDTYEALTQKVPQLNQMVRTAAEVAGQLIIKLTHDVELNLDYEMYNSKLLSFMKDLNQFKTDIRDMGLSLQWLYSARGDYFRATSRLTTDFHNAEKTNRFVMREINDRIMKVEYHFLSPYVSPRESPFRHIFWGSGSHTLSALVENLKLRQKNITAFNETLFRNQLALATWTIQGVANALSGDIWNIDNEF
In words: sandwich BLI, biotinylated TREM2 on streptavidin sensor, antibody step omitted. As for the experimental part:
Streptavidin sensors (Fortebio) were used to capture biotinylated TREM2 proteins (Sino Biological). During all incubation steps, samples were kept at room temperature with 1000 rpm shaking. In the TREM2 loading step, 100 nM biotinylated TREM2 proteins were incubated with the sensors for the designated time. In the bispecific antibody interaction steps, 200 nM antibodies were used. In the muTfR incubation step, 100 nM muTfR-His (Sino Biological) were used. Between incubations, the sensors were dipped into blank kinetic buffers to allow the free dissociation of proteins.
For B11, the binding result is recorded as “no binding (tested: 100 nM)”.

The next assay concerns the target TREM2-DAP12 reporter construct on 2B4 NFAT-EGFP reporter cells (mouse; human, UniProt Q99NH8 19-171; O43914 28-113). In words: cell-based or functional assay.
Consider B12, for which the “EC50 of activation of TREM2-DAP12 NFAT-EGFP reporter cells” value turned out to be 79.4 nM.
